Measured values: PMC5877976

Experiments:
Test in all cases: SPR
[1] = molecular target: chronic gp120 with the early-replicating SP (HIV-1 (subtype B))
[2] = molecular target: early-replicating gp120 with the chronic SP (HIV-1 (subtype B))
[3] = molecular target: chronic gp120 with its wild-type chronic SP (HIV-1 (subtype B))
[4] = molecular target: early-replicating gp120 with its wild-type SP (HIV-1 (subtype B))

tetrameric recombinant soluble DC-SIGN (from UniProt Q9NNX6 1-404) (receptor)
peak response units (RU) [1]: 308 RU | peak response units (RU) [2]: 131 RU | peak response units (RU) [3]: 184 RU | peak response units (RU) [4]: 208 RU
